The Immune Epitope Database (IEDB)

Columns and labels:
[1] = molecular target: HLA-B*27:03; assay: IEDB peptide-MHC binding, purified MHC/competitive/fluorescence; filed as Kd, often an IC50 or EC50 that approximates it; ≥ and ≤ were set here for values at or beyond the usual limits of such assays; settings: source organism: Zaire ebolavirus
[2] = molecular target: HLA-B*46:01; assay: as above; settings: source organism: Zaire ebolavirus
[3] = molecular target: HLA-B*15:01; assay: as above; settings: source organism: Zaire ebolavirus
[4] = molecular target: HLA-B*51:01; assay: as above; settings: source organism: Zaire ebolavirus
[5] = molecular target: HLA-A*69:01; assay: as above; settings: source organism: Zaire ebolavirus
[6] = molecular target: HLA-B*18:01; assay: as above; settings: source organism: Zaire ebolavirus
[7] = molecular target: HLA-B*57:01; assay: as above; settings: source organism: Zaire ebolavirus
[8] = molecular target: HLA-A*26:01; assay: as above; settings: source organism: Zaire ebolavirus
[9] = molecular target: HLA-A*25:01; assay: as above; settings: source organism: Zaire ebolavirus
[10] = molecular target: HLA-B*39:01; assay: as above
[11] = molecular target: HLA-A*80:01; assay: as above; settings: source organism: Zaire ebolavirus
[12] = molecular target: HLA-A*68:02; assay: IEDB peptide-MHC binding, purified MHC/direct/fluorescence; filed as Kd, often an IC50 or EC50 that approximates it; ≥ and ≤ were set here for values at or beyond the usual limits of such assays; settings: source organism: Zaire ebolavirus
[13] = molecular target: HLA-A*02:01; assay: as above
[14] = molecular target: HLA-A*29:02; assay: as above; settings: source organism: Zaire ebolavirus
[15] = molecular target: HLA-A*02:11; assay: as above; settings: source organism: Zaire ebolavirus
[16] = molecular target: HLA-A*03:01; assay: as above
[17] = molecular target: HLA-B*14:02; assay: IEDB peptide-MHC binding, purified MHC/competitive/fluorescence; ≥ and ≤ were set here for values at or beyond the usual limits of such assays; settings: source organism: Horsepox virus
[18] = molecular target: HLA-A*32:15; assay: IEDB peptide-MHC binding, purified MHC/competitive/fluorescence; filed as Kd, often an IC50 or EC50 that approximates it; ≥ and ≤ were set here for values at or beyond the usual limits of such assays; settings: source organism: Vaccinia virus WR
[19] = molecular target: HLA-B*15:42; assay: as above; settings: source organism: Vaccinia virus WR
[20] = molecular target: HLA-A*68:23; assay: as above; settings: source organism: Vaccinia virus WR
[21] = molecular target: HLA-B*45:06; assay: as above; settings: source organism: Vaccinia virus WR
[22] = molecular target: HLA-B*15:09; assay: as above; settings: source organism: Vaccinia virus WR
[23] = molecular target: HLA-B*07:02; assay: IEDB peptide-MHC binding, purified MHC/direct/fluorescence; filed as Kd, often an IC50 or EC50 that approximates it; ≥ and ≤ were set here for values at or beyond the usual limits of such assays; settings: source organism: Camelpox virus CMS
[24] = molecular target: HLA-B*46:01; assay: as above; settings: source organism: Camelpox virus CMS
[25] = molecular target: HLA-B*48:01; assay: as above; settings: source organism: Camelpox virus CMS
[26] = molecular target: HLA-B*15:01; assay: as above; settings: source organism: Camelpox virus CMS
[27] = molecular target: HLA-B*08:01; assay: as above; settings: source organism: Variola virus
[28] = molecular target: HLA-B*51:01; assay: as above; settings: source organism: Camelpox virus CMS
[29] = molecular target: HLA-C*05:01; assay: as above; settings: source organism: Vaccinia virus WR
[30] = molecular target: HLA-A*01:01; assay: as above; settings: source organism: Camelpox virus CMS
[31] = molecular target: HLA-A*69:01; assay: as above; settings: source organism: Camelpox virus CMS
[32] = molecular target: HLA-B*18:01; assay: as above; settings: source organism: Camelpox virus CMS
[33] = molecular target: HLA-A*31:01; assay: as above; settings: source organism: Camelpox virus CMS
[34] = molecular target: HLA-B*40:01; assay: as above; settings: source organism: Camelpox virus CMS
[35] = molecular target: HLA-B*57:01; assay: as above; settings: source organism: Camelpox virus CMS
[36] = molecular target: HLA-A*26:01; assay: as above; settings: source organism: Variola virus
[37] = molecular target: HLA-B*58:01; assay: as above; settings: source organism: Camelpox virus CMS
[38] = molecular target: HLA-B*15:17; assay: as above; settings: source organism: Camelpox virus CMS
[39] = molecular target: HLA-B*27:05; assay: as above; settings: source organism: Camelpox virus CMS
[40] = molecular target: HLA-A*11:01; assay: as above; settings: source organism: Camelpox virus CMS
[41] = molecular target: HLA-B*08:02; assay: as above; settings: source organism: Variola virus
[42] = source organism: Zaire ebolavirus
[43] = source organism: Camelpox virus CMS

SLTDRELLL
Kd [1]: ≥ 20 µM
Kd [2]: ≥ 20 µM
Kd [3]: ≥ 20 µM
Kd [4]: ≥ 20 µM
Kd [5]: ≥ 20 µM
Kd [6]: ≥ 20 µM
Kd [7]: ≥ 20 µM
Kd [8]: ≥ 20 µM
Kd [9]: ≥ 20 µM
Kd [10, 42]: ≥ 20000 nM
Kd [11]: ≥ 20 µM
Kd [12]: ≥ 20 µM
Kd ([13]; source organism: Sudan ebolavirus - Uganda (2000)): 1.3 nM
Kd [14]: ≥ 20 µM
Kd [15]: ≥ 20 µM
Kd [16, 42]: ≥ 20 µM

MPAYIRNTL
IC50 [17]: 453 nM
Kd [18]: 63.6 nM
Kd [19]: ≥ 5 µM
Kd [20]: 0.9 nM
Kd [21]: ≥ 5 µM
Kd ([10]; source organism: Vaccinia virus WR): 36.4 nM
Kd [22]: ≥ 20 µM
Kd [23]: 6.6 nM
Kd [24]: ≥ 20 µM
Kd [25]: 1520 nM
Kd [26]: ≥ 20 µM
Kd [27]: 8 nM
Kd [28]: 676 nM
Kd [29]: ≥ 20 µM
Kd [30]: ≥ 20 µM
Kd [13, 43]: ≥ 20000 nM
Kd [31]: ≤ 1 nM
Kd [32]: 2820 nM
Kd [33]: ≥ 20 µM
Kd [34]: ≥ 20 µM
Kd [35]: ≥ 20 µM
Kd [36]: 6.95 µM
Kd [37]: ≥ 20 µM
Kd [38]: ≥ 20 µM
Kd [39]: ≥ 20 µM
Kd [40]: ≥ 20 µM
Kd [16, 43]: ≥ 20 µM
Kd [41]: 1370 nM
